Experiments:
[1] = molecular target: Synthetic human type I collagen
[2] = molecular target: T1, Synthetic human type III collagen
T1 chain: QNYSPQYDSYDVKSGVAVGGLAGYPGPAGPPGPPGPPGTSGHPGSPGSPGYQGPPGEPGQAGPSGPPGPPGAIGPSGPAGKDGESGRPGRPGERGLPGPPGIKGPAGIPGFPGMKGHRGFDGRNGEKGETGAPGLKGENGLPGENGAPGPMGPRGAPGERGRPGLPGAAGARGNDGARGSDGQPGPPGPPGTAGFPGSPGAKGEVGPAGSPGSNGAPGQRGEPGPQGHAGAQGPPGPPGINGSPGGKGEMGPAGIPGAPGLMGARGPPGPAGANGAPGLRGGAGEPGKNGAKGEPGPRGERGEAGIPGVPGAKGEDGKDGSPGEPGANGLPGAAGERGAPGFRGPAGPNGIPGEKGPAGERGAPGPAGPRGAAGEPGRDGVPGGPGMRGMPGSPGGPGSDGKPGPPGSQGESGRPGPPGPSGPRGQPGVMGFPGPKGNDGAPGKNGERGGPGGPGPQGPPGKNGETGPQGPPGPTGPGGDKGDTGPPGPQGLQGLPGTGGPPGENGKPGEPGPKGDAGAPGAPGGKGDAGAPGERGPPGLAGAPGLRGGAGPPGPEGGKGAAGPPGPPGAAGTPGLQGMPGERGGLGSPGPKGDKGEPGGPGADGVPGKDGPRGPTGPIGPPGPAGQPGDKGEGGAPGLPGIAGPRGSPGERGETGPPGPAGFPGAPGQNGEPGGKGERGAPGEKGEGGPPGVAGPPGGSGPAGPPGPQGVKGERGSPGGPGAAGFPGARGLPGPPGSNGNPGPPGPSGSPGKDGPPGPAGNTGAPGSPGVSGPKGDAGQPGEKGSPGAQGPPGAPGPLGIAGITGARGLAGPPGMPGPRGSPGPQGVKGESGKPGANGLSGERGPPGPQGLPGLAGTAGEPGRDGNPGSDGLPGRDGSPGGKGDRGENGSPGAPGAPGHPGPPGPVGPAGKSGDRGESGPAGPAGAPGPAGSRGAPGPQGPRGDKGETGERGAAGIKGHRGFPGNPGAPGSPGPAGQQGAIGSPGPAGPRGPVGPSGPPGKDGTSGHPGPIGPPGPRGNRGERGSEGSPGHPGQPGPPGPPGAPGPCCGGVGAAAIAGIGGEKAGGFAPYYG

Sequence of Synthetic human type I collagen (chain, as listed by the source, chain 1 of 2): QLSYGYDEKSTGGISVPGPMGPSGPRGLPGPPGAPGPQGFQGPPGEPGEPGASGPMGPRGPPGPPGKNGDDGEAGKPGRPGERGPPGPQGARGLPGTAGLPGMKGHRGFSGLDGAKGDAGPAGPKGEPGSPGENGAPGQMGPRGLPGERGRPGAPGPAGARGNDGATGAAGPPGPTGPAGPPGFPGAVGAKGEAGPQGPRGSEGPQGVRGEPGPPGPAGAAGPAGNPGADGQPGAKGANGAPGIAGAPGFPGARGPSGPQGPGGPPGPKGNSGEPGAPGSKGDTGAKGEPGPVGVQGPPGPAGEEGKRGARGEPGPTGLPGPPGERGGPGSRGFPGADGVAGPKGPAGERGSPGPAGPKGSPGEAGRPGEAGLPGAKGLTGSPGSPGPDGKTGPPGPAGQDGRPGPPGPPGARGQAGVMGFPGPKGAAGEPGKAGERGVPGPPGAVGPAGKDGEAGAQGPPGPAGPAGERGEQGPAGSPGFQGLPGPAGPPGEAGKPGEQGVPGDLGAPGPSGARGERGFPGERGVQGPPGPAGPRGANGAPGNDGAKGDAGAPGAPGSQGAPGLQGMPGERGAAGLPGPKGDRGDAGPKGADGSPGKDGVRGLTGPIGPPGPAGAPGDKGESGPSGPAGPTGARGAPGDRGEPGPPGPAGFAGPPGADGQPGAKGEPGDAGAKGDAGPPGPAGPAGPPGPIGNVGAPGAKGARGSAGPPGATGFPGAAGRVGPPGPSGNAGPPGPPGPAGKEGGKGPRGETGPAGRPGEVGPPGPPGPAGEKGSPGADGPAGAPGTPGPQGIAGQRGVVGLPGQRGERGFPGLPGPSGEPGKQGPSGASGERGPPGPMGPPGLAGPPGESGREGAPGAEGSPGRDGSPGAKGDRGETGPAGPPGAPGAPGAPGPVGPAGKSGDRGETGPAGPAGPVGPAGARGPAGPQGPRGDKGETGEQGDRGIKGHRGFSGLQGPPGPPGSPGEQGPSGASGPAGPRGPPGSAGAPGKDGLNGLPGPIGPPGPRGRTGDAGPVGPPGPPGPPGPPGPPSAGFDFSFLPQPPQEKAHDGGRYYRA
Sequence of Synthetic human type I collagen (chain, as listed by the source, chain 2 of 2): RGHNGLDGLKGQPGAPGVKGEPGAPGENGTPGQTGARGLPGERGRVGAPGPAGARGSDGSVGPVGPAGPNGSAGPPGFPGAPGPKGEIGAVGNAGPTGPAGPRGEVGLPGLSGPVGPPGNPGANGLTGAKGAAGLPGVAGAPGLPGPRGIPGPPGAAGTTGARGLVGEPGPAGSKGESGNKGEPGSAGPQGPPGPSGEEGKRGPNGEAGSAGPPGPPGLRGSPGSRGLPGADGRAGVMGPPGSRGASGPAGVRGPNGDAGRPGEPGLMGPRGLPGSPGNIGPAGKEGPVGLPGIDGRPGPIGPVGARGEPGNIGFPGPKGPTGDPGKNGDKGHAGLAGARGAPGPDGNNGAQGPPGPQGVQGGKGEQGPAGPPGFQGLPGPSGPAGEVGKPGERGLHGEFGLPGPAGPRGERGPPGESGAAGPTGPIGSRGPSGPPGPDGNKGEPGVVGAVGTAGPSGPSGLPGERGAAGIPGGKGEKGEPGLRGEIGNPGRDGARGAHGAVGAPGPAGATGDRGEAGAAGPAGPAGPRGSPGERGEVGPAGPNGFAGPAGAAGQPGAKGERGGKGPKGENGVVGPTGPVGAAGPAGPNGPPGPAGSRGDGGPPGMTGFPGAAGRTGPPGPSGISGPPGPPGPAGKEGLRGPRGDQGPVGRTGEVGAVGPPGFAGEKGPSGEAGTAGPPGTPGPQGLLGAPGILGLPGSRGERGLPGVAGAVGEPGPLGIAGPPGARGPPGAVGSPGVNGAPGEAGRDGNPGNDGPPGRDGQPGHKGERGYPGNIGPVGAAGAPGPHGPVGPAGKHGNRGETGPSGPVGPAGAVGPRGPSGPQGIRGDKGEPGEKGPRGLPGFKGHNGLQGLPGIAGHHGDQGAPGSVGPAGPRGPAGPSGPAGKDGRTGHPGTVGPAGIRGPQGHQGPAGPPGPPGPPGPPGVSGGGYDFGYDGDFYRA

B1: MMP-1 (collagenase 1, fibroblast collagenase) (protein)
chain: FVLTEGNPRWEQTHLTYRIENYTPDLPRADVDHAIEKAFQLWSNVTPLTFTKVSEGQADIMISFVRGDHRDNSPFDGPGGNLAHAFQPGPGIGGDAHFDEDERWTNNFREYNLHRVAAHELGHSLGLSHSTDIGALMYPSYTFSGDVQLAQDDIDGIQAIYGRSQNPVQPIGPQTPKACDSKLTFDAITTIRGEVMFFKDRFYMRTNPFYPEVELNFISVFWPQLPNGLEAAYEFADRDEVRFFKGNKYWAVQGQNVLHGYPKDIYSSFGFPRTVKHIDAALSEENTGKTYFFVANKYWRYDEYKRSMDPGYPKMIAHDFPGIGHKVDAVFMKDGFFYFFHGTRQYKFDPKTKRILTLQKANSWFNCRKN
- cleavage of collagen (SDS-PAGE after 1, 2 and 7 days at 37 C) [1]: both synthetic human type I and type III collagen were cleaved by MMP-1 (FIG. 1A) and MMP-8 (FIG. 1B)
- cleavage of collagen (SDS-PAGE after 1, 2 and 7 days at 37 C) [2]: both synthetic human type I and type III collagen were cleaved by MMP-1 (FIG. 1A) and MMP-8 (FIG. 1B)
- extent of degradation of collagen (SDS-PAGE) [2]: Synthetic human type III collagen was degraded by MMP-1 to a greater extent than by MMP-8
